Results published in PMC12648486, “A LisH-domain protein interaction map reveals a Lis1-ARIH2-dynein regulatory axis” (iScience, 2025).

Target: T1, MBP-ARIH2 (UniProt O95376 1-493)
T1 construct: RBR-type E3 ubiquitin ligase ARIH2, cloned in this study into an MBP-tagged Gateway vector; source: E. coli BL21 (DE3), purified (Dextran-Sepharose, maltose elution)
T1 sequence (looked up): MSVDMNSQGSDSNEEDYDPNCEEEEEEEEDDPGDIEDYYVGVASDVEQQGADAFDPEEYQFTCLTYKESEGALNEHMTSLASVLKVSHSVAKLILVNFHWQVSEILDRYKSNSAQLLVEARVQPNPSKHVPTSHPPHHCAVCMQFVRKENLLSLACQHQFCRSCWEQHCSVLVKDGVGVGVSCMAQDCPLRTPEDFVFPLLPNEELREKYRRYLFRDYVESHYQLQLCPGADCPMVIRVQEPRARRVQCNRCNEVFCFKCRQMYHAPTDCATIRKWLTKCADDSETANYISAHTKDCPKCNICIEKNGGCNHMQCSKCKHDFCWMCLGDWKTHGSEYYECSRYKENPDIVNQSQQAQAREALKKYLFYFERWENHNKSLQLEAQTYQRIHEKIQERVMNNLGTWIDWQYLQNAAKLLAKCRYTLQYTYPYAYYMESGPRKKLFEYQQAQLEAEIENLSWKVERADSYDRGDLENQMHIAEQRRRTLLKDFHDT
Experiment: pull-down; bacterially purified recombinant GST-tagged protein incubated with purified MBP-ARIH2; eluates immunoblotted with MBP antibody
Conditions: both partners purified

B1: GST-Lis1 (natural protein, human, UniProt P43034 1-410, looked up)
chain: MVLSQRQRDELNRAIADYLRSNGYEEAYSVFKKEAELDVNEELDKKYAGLLEKKWTSVIRLQKKVMELESKLNEAKEEFTSGGPLGQKRDPKEWIPRPPEKYALSGHRSPVTRVIFHPVFSVMVSASEDATIKVWDYETGDFERTLKGHTDSVQDISFDHSGKLLASCSADMTIKLWDFQGFECIRTMHGHDHNVSSVAIMPNGDHIVSASRDKTIKMWEVQTGYCVKTFTGHREWVRMVRPNQDGTLIASCSNDQTVRVWVVATKECKAELREHEHVVECISWAPESSYSSISEATGSETKKSGKPGPFLLSGSRDKTIKMWDVSTGMCLMTLVGHDNWVRGVLFHSGGKFILSCADDKTLRVWDYKNKRCMKTLNAHEHFVTSLDFHKTAPYVVTGSVDQTVKVWECR
notes: Lis1 (PAFAH1B1), human, in a GST-tagged Gateway vector; source: E. coli BL21 (DE3), purified (Glutathione Sepharose)
- binding result: binds
